We go through five molecules from article PMC4207043, “Distinct N-terminal regions of the exomer secretory vesicle cargo Chs3 regulate its trafficking itinerary” (Frontiers in Cell and Developmental Biology, 2014).

The target in one test is T1, Chs6-6xHis (S. cerevisiae, UniProt P40955 1-746).
T1 construct: Chs6, S. cerevisiae; The Chs6 chain of m1, written alone for the pairs that touch in the crystal structure; The end of the tag is read from the printed name; also called His-tagged Chs6; source: recombinant, purified with Chs5(1–77) as described (Paczkowski et al., 2012); not shown: His6, C-terminal, kept
T1 sequence (looked up): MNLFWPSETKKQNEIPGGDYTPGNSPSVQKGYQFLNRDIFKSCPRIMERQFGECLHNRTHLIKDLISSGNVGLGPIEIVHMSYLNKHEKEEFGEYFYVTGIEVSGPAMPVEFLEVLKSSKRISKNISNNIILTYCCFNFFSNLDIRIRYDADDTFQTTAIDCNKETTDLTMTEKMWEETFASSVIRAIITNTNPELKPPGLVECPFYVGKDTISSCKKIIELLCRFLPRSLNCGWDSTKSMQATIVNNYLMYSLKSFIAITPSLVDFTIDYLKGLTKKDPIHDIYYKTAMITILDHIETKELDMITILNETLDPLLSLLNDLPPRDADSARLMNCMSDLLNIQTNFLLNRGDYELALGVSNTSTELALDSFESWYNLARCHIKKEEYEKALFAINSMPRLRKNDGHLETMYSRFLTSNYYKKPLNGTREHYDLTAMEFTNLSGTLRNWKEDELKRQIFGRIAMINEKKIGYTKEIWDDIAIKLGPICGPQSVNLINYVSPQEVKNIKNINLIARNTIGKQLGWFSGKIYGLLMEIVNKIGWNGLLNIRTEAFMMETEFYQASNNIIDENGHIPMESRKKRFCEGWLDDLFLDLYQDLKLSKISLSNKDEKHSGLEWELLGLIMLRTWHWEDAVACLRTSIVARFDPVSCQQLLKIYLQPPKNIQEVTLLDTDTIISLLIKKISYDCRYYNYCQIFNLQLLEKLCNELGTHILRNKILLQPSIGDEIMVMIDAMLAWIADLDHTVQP
Briefly: crystal structure; Chs5(1–77)/Chs6-6xHis exomer co-crystallised with Chs3 peptide, hanging drop vapor diffusion; 0.3 M ammonium sulfate, 0.1 M citric acid pH 4.0; molar ratio 3.85:1 peptide:exomer. The following applies: both partners purified.

The target in test [1] is T2, Recombinant "core" exomer complex (Chs5 residues 1–77 and Chs6-6xHis) (S. cerevisiae, UniProt Q12114 1-77; P40955 1-746).
T2 construct: Chs5, S. cerevisiae, residues 1–77; Chs6, S. cerevisiae; The end of the 6xHis tag is read from the printed name Chs6-6xHis; also called Chs5(1–77)/Chs6-6xHis exomer complex; purified exomer; source: recombinant, purified as described for the Chs5(1–299)/Chs6-6xHis construct (Paczkowski et al., 2012); not shown: His6, C-terminal, kept
T2 sequence (looked up) 1: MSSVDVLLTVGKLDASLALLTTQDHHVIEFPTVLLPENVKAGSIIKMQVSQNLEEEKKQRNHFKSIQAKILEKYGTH
T2 sequence (looked up) 2: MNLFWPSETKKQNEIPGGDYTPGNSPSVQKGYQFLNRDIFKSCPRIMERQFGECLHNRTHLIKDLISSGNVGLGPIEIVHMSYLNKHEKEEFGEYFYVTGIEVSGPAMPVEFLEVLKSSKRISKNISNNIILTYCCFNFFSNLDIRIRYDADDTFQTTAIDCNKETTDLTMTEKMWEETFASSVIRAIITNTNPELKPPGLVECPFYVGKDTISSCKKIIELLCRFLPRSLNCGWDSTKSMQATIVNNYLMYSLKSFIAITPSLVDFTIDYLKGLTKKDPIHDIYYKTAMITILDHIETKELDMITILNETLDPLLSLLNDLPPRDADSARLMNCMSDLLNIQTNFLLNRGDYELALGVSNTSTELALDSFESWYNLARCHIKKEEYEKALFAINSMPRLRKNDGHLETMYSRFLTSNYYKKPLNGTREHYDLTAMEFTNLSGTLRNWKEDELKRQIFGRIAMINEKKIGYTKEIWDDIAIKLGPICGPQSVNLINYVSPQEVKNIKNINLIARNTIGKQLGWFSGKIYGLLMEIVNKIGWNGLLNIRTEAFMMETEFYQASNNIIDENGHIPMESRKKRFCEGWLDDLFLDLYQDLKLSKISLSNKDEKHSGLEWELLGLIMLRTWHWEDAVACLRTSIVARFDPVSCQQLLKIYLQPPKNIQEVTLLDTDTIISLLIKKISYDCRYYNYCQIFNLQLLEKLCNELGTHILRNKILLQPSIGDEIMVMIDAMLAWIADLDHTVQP
Briefly: pull-down; GST-Chs3 fragments held on glutathione resin; 10 μl of 5 mg/ml purified exomer added to resin in 500 μl PBS + 1 mM DTT, ~1 h at 4°C, washed 3 times; exomer detected by Western blot with anti-6xHis antibody (by Coomassie staining in Figure 5C). The following applies: both partners purified.

B1: Chs5(1–77) (domain or fragment, S. cerevisiae, UniProt Q12114 1-77, looked up)
chain: MSSVDVLLTVGKLDASLALLTTQDHHVIEFPTVLLPENVKAGSIIKMQVSQNLEEEKKQRNHFKSIQAKILEKYGTH
notes: Chs5, S. cerevisiae, residues 1–77; The Chs5 chain of m1, written alone for the pair that touches in the crystal structure; also called Chs5 residues 1–77; truncated Chs5; source: recombinant, purified with Chs6-6xHis as described (Paczkowski et al., 2012)
As to B1, the binding result with Chs6-6xHis was “binds”.

B2: Chs3 peptide matching residues 10–27 (peptide, UniProt P29465 10-27, looked up)
peptide: DDYYLNLNQDEESLLRSR
notes: Chs3 (chitin synthase), S. cerevisiae, residues 10–27; only residues 12–25 are visible in the structure; also called peptide of Chs3 residues 10–27; source: synthetic peptide (Genscript, 95% purity)
Turning to B2, in the test with Chs6-6xHis, the binding result was “binds”.

B3: GST-Chs3(1–52) (domain or fragment, S. cerevisiae, UniProt P29465 1-52, looked up)
chain: MTGLNGDDPDDYYLNLNQDEESLLRSRHSVGSGAPHRQGSLVRPERSRLNNP
notes: Chs3 (chitin synthase), S. cerevisiae, residues 1–52; Vector pGEX-2T; the end of GST is read from the printed name GST-Chs3; also called Residues 1–52; wild-type GST-Chs3(1–52) fragment; source: E. coli Rosetta2 (DE3), isolated from cleared lysate on glutathione resin; not shown: GST, N-terminal, kept
Turning to B3, in test [1], the binding result is “binds”.

B4: GST-Chs3 fragment, residues 1–52 with residues 10–27 deleted (domain or fragment, S. cerevisiae, UniProt P29465 1-52, looked up)
chain: MTGLNGDDPHSVGSGAPHRQGSLVRPERSRLNNP
notes: Chs3 (chitin synthase), S. cerevisiae, residues 1–52 lacking residues 10–27; Vector pGEX-2T; the end of GST is read from the printed name GST-Chs3; source: E. coli Rosetta2 (DE3), isolated from cleared lysate on glutathione resin; not shown: GST, N-terminal, kept
Turning to B4, in test [1], the binding result is “binds”.

B5: GST-Chs3 fragment, residues 28–52 (domain or fragment, S. cerevisiae, UniProt P29465 28-52, looked up)
chain: HSVGSGAPHRQGSLVRPERSRLNNP
notes: Chs3 (chitin synthase), S. cerevisiae, residues 28–52; Vector pGEX-2T; the end of GST is read from the printed name GST-Chs3; source: E. coli Rosetta2 (DE3), isolated from cleared lysate on glutathione resin; not shown: GST, N-terminal, kept
Consider B5, for which the binding result in test [1] is listed as “binds”.
